According to patent US20240307496A1, “METHOD AND PHARMACEUTICAL COMBINATION FOR PREVENTING CANCER RECURRENCE” (priority 2021, published 2024):

B1: deglycosylated mIFN-α4: recombinant mouse interferon α4 (GenBank NP_034634) expressed in Pichia pastoris, glycosyl groups removed with glycosidase (protein, UniProt P07351 25-186, looked up)
Interferon alpha-4: CDLPHTYNLGNKRALTVLEEMRRLPPLSCLKDRKDFGFPLEKVDNQQIQKAQAILVLRDLTQQILNLFTSKDLSATWNATLLDSFCNDLHQQLNDLKACVMQEPPLTQEDSLLAVRTYFHRITVYLRKKKHSLCAWEVIRAEVWRALSSSTNLLARLSEEKE
modifications: deglycosylated
notes: recombinant mouse interferon α4 (GenBank NP_034634) expressed in Pichia pastoris, glycosyl groups removed with glycosidase
B2: PEG-mIFN-α4: deglycosylated recombinant mouse interferon α4 modified with 40kD Y-type polyethylene glycol succinimide ester (YPEG-NHS); SEQ ID NO: 6 (protein)
chain: B1 Interferon alpha-4
modifications: 40kD Y-type PEG; deglycosylated; peginterferon murine alpha 4

What was measured:
[1] = system: transplanted liver cancer H22; assay: Prevention of recurrence of transplanted liver cancer H22 in mice; assay type: in vivo, BALB/c mice; details: for anticancer activity / prevention of tumor recurrence (conclusion): H22 recurrence simulated with low-density tumor inoculation; for Tumor incidence: tumor volume ≥ 62.5 mm^3 positive, then stopped 103 days, PEG-mIFN-α4 1 μg/mouse s.c.
Source text: After tumor treatment, the tumor load in patient's body is relatively low, so a low tumor grafting volume is used to simulate the state after tumor treatment. […] Three days after tumor inoculation, they were randomly divided into the following experiment groups: PEG-mIFN-α4 group (N=28, 14 females, 14 males). PEG-mIFN-α4 combined with gemcitabine group (N=28, 14 females, 14 males), normal saline control group (N=28, 14 females, 14 males), and gemcitabine only group (N=28, 14 females, 14 males).
PEG-mIFN-α4 was administered by subcutaneous injection on the back of the neck, with a dose of 1 microgram per mouse. Administration began on the day after grouping. In the PEG-mIFN-α4 group, PEG-mIFN-α4 was administered once a week for 9 weeks, and then stopped for 103 days. In the PEG-mIFN-α4 combined with gemcitabine group, PEG-mIFN-α4 and gemcitabine were administered once a week for 9 weeks, and then stopped for 103 days. In the gemcitabine alone group, gemcitabine was administered once a week for 9 weeks, and then stopped for 103 days. The normal saline control group was given an equal volume of normal saline. Gemcitabine was injected intraperitoneally at a dose of 60 mg/kg.
(§1) The tumor incidence of each group was calculated when the tumor volume was greater than or equal to 62.5 mm^3, which was determined as positive for tumor occurrence.

[2] = system: transplanted colorectal cancer CT26; assay: Prevention of recurrence of transplanted colorectal cancer CT26 in mice; assay type: in vivo, BALB/c mice; details: for anticancer activity / prevention of tumor recurrence (conclusion): CT26 recurrence simulated with low-density tumor inoculation; for survival rate during the observation period / Tumor incidence: gemcitabine 60 mg/kg i.p.; for Tumor incidence: tumor volume ≥ 62.5 mm^3 positive, then stopped 56 days
Method: On the day after tumor inoculation, they were randomly divided into the following experiment groups: PEG-mIFN-α4 only group (N=20, 10 females and 10 males), normal saline control group (N=20, 10 females and 10 males), gemcitabine only group (N=20, 10 females and 10 males), and PEG-mIFN-α4 combined with gemcitabine group (N=20, 10 females and 10 males).
PEG-mIFN-α4 was administered by subcutaneous injection on the back of the neck, with a dose of 1 microgram per mouse. Administration began on the day after grouping. In the PEG-miFN-α4 only group, PEG-mFN-α4 was administered once a week for 12 times, and then stopped for 56 days. In the PEG-mIFN-α4 combined with gemcitabine group, both PEG-mIFN-α4 and gemcitabine were administered once a week for 12 consecutive times, and then stopped for 56 days. In the gemcitabine only group, gemcitabine was administered once a week for 12 times, and then stopped for 56 days. The normal saline control group was given an equal volume of normal saline. Gemcitabine was administered by intraperitoneal injection at a dose of 60 mg/kg.
as §1

[3] = system: mouse fibroblast/encephalomyocarditis vinis (L929/EMCV); assay: L929/EMCV cytopathic inhibition method, specific activity; assay type: cell-based; details: commercial mIFN-α4 (R&D) as the standard
Method: (§2) The bacterial endotoxin content of the deglycosylated mIFN-α4 stock solution was determined by the Limulus reagent method as lower than 60 EU/mg, specific activity was determined as 5.4×10^8 U/mg by using the commercial mIFN-α4 (R&D, catalog number 12115-1) as the standard, and by using the mouse fibroblast/encephalomyocarditis vinis (L929/EMCV) cytopathic inhibition method.
as §2, with “PEG-mIFN-α4” for “deglycosylated mIFN-α4”, “15 EU/mg. Specific” for “60 EU/mg, specific”, “6.1×10^6” for “5.4×10^8”

[4] = set-up: species or system BALB/c mice; details: mouse, in vivo, sc
Source text: Note: In the pharmacokinetic analysis, for samples with blood concentration lower than the quantification lower limit, the sample before the peak blood concentration was counted as 0, and the sample after the peak was expressed as BLQ.

[5] = by day 166 after tumor inoculation, once a week for 9 weeks, gemcitabine 60 mg/kg i.p.
[6] = by day 134 after tumor inoculation, once a week for 12 times, PEG-mIFN-α4 1 μg/mouse s.c.
[7] = by day 134 after tumor inoculation, once a week for 12 times, PEG-mIFN-α4 1 μg/mouse s.c., listed as gemcitabine

Molecule | anticancer activity / prevention of tumor recurrence (conclusion) [1] | Median survival time (time after tumor inoculation, days) [1, 5] | Tumor incidence [1, 5] | Tumor incidence ([1]; by day 166 after tumor inoculation, once a week for 9 weeks, gemcitabine 60 mg/kg i.p., listed as gemcitabine) | anticancer activity / prevention of tumor recurrence (conclusion) [2] | survival rate during the observation period [2, 6] | survival rate during the observation period [2, 7] | Tumor incidence [2, 6] | Tumor incidence [2, 7] | specific activity [3] | tumor incidence compared with normal saline control group ([1]; H22, day 166) | tumor incidence compared with normal saline control group ([2]; CT26, day 134) | Median survival time (time after tumor inoculation, days) [2, 6] | Cl_F—obs [4] | T1/2 [4] | Tmax [4] | Vz_F—obs [4] | elimination half-life (T1) [4] | plasma concentration peak time (Tmax) [4]
Nc1ccn([C@@H]2O[C@H](CO)[C@@H](O)C2(F)F)c(=O)n1 [Gemcitabine, reference compound] | could effectively prevent tumor recurrence | 93.0 days | 57.1% | 57.1% | could effectively prevent tumor recurrence | period: 55.0% | 55.0% | 50.0% | 50% |  |  |  |  |  |  |  |  |  | 
B1 |  |  |  |  |  |  |  |  |  | 5.4×10^8 U/mg |  |  |  |  |  |  |  |  | 
B2 | could effectively prevent tumor recurrence |  | 32.1% |  | could effectively prevent tumor recurrence |  |  | 95% |  | 6.1×10^6 U/mg | lower | lower | 68.5 days | 0.07 mL/h | 28.3 h | 24.0 h | 2.91 mL | 28.3 h | 24 h
